Reference: IntAct's records for PubMed 23871208

B1: Tyrosine-protein phosphatase non-receptor type 22 (Homo sapiens), Q9Y2R2 (parent)
chain: MDQREILQKFLDEAQSKKITKEEFANEFLKLKRQSTKYKADKTYPTTVAEKPKNIKKNRYKDILPYDYSRVELSLITSDEDSSYINANFIKGVYGPKAYIATQGPLSTTLLDFWRMIWEYSVLIIVMACMEYEMGKKKCERYWAEPGEMQLEFGPFSVSCEAEKRKSDYIIRTLKVKFNSETRTIYQFHYKNWPDHDVPSSIDPILELIWDVRCYQEDDSVPICIHCSAGCGRTGVICAIDYTWMLLKDGIIPENFSVFSLIREMRTQRPSLVQTQEQYELVYNAVLELFKRQMDVIRDKHSGTESQAKHCIPEKNHTLQADSYSPNLPKSTTKAAKMMNQQRTKMEIKESSSFDFRTSEISAKEELVLHPAKSSTSFDFLELNYSFDKNADTTMKWQTKAFPIVGEPLQKHQSLDLGSLLFEGCSNSKPVNAAGRYFNSKVPITRTKSTPFELIQQRETKEVDSKENFSYLESQPHDSCFVEMQAQKVMHVSSAELNYSLPYDSKHQIRNASNVKHHDSSALGVYSYIPLVENPYFSSWPPSGTSSKMSLDLPEKQDGTVFPSSLLPTSSTSLFSYYNSHDSLSLNSPTNISSLLNQESAVLATAPRIDDEIPPPLPVRTPESFIVVEEAGEFSPNVPKSLSSAVKVKIGTSLEWGGTSEPKKFDDSVILRPSKSVKLRSPKSELHQDRSSPPPPLPERTLESFFLADEDCMQAQSIETYSTSYPDTMENSTSSKQTLKTPGKSFTRSKSLKILRNMKKSICNSCPPNKPAESVQSNNSSSFLNFGFANRFSKPKGPRNPPPTWNI
partner: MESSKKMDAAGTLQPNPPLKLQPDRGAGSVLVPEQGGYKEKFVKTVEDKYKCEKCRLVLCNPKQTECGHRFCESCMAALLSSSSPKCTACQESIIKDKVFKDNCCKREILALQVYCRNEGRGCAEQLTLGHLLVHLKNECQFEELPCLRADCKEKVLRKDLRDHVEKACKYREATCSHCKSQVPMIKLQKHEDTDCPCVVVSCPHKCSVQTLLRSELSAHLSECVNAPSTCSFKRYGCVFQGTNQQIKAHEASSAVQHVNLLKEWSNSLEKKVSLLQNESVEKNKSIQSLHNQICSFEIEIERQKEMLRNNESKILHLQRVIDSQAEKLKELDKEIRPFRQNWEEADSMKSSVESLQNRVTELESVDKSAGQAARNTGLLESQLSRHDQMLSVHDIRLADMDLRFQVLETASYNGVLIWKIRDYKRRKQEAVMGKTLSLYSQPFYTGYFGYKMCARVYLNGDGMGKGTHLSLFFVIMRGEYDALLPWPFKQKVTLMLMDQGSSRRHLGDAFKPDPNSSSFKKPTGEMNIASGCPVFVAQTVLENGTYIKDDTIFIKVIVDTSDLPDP

Variants of: B1
Conditions: with traf3_mouse Traf3, Q60803

| effect of a mutation on the interaction | Variant |
| --- | --- |
| decreasing interaction strength | R620W |
